Laboratory results as given in patent publication US8741840B2, “BMP-7 for use in treating neointimal hyperplasia” (Washington University, priority 2008, dated 2014).
Several values for one entry are separate records, joined by “and”; a condition that tells them apart may be missing. Equal entries are not always repeated.

How the values were obtained:
[1] = test system: human vascular smooth muscle cells (hVSMC) isolated from atherosclerotic donors; assay: Phosphorus stimulated matrix mineralization (matrix Ca content) in hVSMC cultures; assay type: cell-based; set-up: Matrix Ca content, Effects of 10 ng/ml BMP-7: unit not given here
Method: Cell Culture: Human adult aorta were obtained from seven cadaveric organ donors rejected because of atherosclerosis by Mid-America Transplant Services (St. Louis, Mo.) and enzymatically digested to obtain Human Smooth Muscle Cells (HSMC). Medial tissue was separated from the adventia and intima and digested with collagenase type I (Worthington, Lakewood, N.J.) 2 mg/ml for 1 hr, and washed with Hank's balanced salt solution (HBSS). Further digestion followed with collagenase type II 1 mg/ml (Worthington, Lakewood, N.J.) and elastase 0.25 mg/ml (Worthington, Lakewood, N.J.) for 4 hrs. Cell suspensions were washed twice with HBSS and cultured in T-75 flasks for three weeks in a 95%/5% air/CO2 humidified environment at 37° C. The growth medium used was DMEM containing […] glucose (high glucose), 10% fetal bovine serum (FBS, Atlas, Fort Collins, Colo.), 1 mM sodium pyruvate, 100 units/ml Penicillin and […] Streptomycin (Sigma, St Louis, Mo.). Cell purity was assessed by positive immunostaining for α-smooth muscle actin and calponin and for the absence of von Willebrand factor. In all experimental protocols, cells were seeded at 1×10^5 cells/well in six-well plates. Medium was changed on the first day and every third day thereafter. In all cases, cells used were between passages two and five (Table 3).
Induction of Calcification: At the time of confluence, cells were switched to mineralization medium consisting of DMEM supplemented with 1 or 2 mM Pi. For cells exposed to BMP-7 treatment, fresh mineralization medium containing either vehicle (mannitol, acetic acid, acetate) or BMP-7 in vehicle was added at 0.1, 1.0, 10, or 100 ng/ml. The medium was changed every two or three days. […] Calcium content was quantified and normalized to cellular protein as described. (Jono 2000; Moe S. M. et al., Kidney Int 67:2295-2304, 2005)^11;52
In vitro matrix mineralization. […]

[2] = test system: aortas of LDLR−/− high fat fed mice; assay: Aortic expression of calcification related genes by real time RT-PCR; assay type: in vivo, mouse; conditions: CKD mice, BMP-7, 3% CaCO3 or 3% LaCO3 treated
Method: Real Time Quantitative RT-PCR: Following reverse transcription performed as above, real time was performed using the MX 4000 (Strategene, La Jolla, Calif.), SYBR Green from Sigma (St. Louis) and the PCR kit from Invitrogen. Each reaction was performed in triplicate at 95° C., 45 sec, and 60° C., 30 sec, and 60 sec at 72° C. for 40 cycles. This was followed by a melt cycle, which consisted of stepwise increase in temperature from 72° C. to 99° C. […] Ct numbers (threshold values) were set within the exponential phase of PCR and were used to calculate the expression levels of the genes of interest. GAPDH was used as an internal standard and used to normalize the values. A standard curve consisting of the cT versus log cDNA dilutions (corresponding to the log copy numbers) was generated by amplifying serial dilutions of cDNA corresponding to an […] amount of amplicon.
Expression of calcification related genes. To relate the mechanism of phosphorus action detected in vitro to this model of CKD induced vascular calcification and hyperphosphatemia in vivo, the inventors of the instant invention analyzed aortic expression of the osteoblastic lineage genes including osterix message levels by real time RT-PCR. […] Data are expressed as the mean of the transcript levels relative to GAPDH expression in each aorta±SEM, N=3. […] (Hoffman 1994;Ducy P. et al., Mol Cell Biol 15:1858-1869, 1995)^32;41

[3] = test system: AV anastomosis NH lesion in mice; assay: Neointimal hyperplasia lesion formation at arteriovenous fistula anastomosis in CKD and sham mice; assay type: in vivo, mouse
From the text: Six weeks after creation of CKD and sham mice as described above, animals underwent an AV fistula creation by anastomosing the left common carotid artery to the jugular vein in an end-to-side fashion. Under a sterile condition, a vertical incision was made in the left neck with the left common carotid artery and the adjacent external jugular vein carefully dissected out. The common carotid artery clamp was placed at the proximal portion with an 11-0 nylon suture and the common carotid artery was divided just proximal to the bifurcation. Next, the jugular vein was clamped proximally and distally and punctured in the middle portion with a 27 G syringe. After filling this vein segment with heparinized saline, the venotomy of 0.7 mm in length was performed. […]
Three weeks after AV fistula creation, animals were euthanized, and the AV anastomoses were perfusion-fixed via the left ventricle at 100 mm Hg pressure as described previously (Leidenfrost J E, et al., Am J Pathol. 2003; 163(2):773-778).^53 Before perfusion fixation, blood was drawn from the left ventricle for the biochemical analysis. Blood urea nitrogen (BUN), phosphorus, and calcium were measured by autoanalyzer techniques in the Animal Facility Clinical Laboratory at Washington University in St. Louis, Mo. […]

[4] = test system: LDLR−/− mice with CKD on high fat diet; conditions: LDLR-/- mice with CKD fed high fat diets; previous studies (Davies 2003; Davies 2005); cited from earlier work

B1: BMP-7: bone morphogenetic protein-7 (osteogenic protein-1), mineralization-countering morphogen; provided by Johnson and Johnson (protein, listed as Homo sapiens)
chain: STGSKQRSQNRSKTPKNQEALRMANVAENSSSDQRQACKKHELYVSFRDLGWQDWIIAPEGYAAYYCEGECAFPLNSYMNATNHAIVQTLVHFINPETVPKPCCAPTQLNAISVLYFDDSSNVILKKYRNMVVRACGCH
**Q.** What does the source list for B1?
**A.** mineralization of the ECM ([1]; BMP-7 0.1, 1 and 10 ng/ml, 14 or 21 days in high phosphorus media (FIG. 4)): decreased mineralization of the ECM; Matrix Ca content, Effects of 10 ng/ml BMP-7 ([1]; hVSMC from atherosclerotic aortas, one donor (donors 1-7, passage 2-3), 10 ng/ml BMP-7 in high phosphorus (2 mM PO4) media): 18 and 17.9 and 25.8 and 19.8 and 22.1 and 20.3 and 20.6; CBFA1 expression in aorta ([2]; relative to GAPDH (FIG. 9B)): inhibited; Osterix expression in aorta ([2]; relative to GAPDH (FIG. 9C)): inhibited; Osteocalcin expression in aorta ([2]; relative to GAPDH (FIG. 9D)): inhibited; NH lesion formation induced by CKD ([3]; CKD animals, BMP-7 100 μg/kg intraperitoneally twice a week, P<0.01 (FIG. 12)): eliminated the stimulation of NH lesion formation induced by CKD; NH lesion development ([3]; sham operated animals, BMP-7 100 μg/kg intraperitoneally twice a week (FIG. 12)): no effect; development of aortic calcification (prevention studies) [4]: prevented the development of aortic calcification
